Data: doi:10.1101/2024.10.26.620377 (bioRxiv, 2024)

Assays:
[1] = biological target: GPR52 H8-A mutant, receptor-RLuc8 (human) (UniProt Q9Y2T5); test: FRET or BRET
[2] = biological target: GPR52 H8-A mutant, receptor-RLuc8 (human) (UniProt Q9Y2T5)
[3] = biological target: T1, GPR52 (wild-type), receptor-RLuc8 BRET biosensor (human, UniProt Q9Y2T5 1-361); test: FRET or BRET
[4] = biological target: T1, GPR52 (wild-type), receptor-RLuc8 BRET …; test: FRET or BRET; remark: listed apart in the source

| Molecule | % Emax of BRET, unliganded, relative to wild-type [1] [% Emax] | Tango assay, constitutive β-arrestin2 recruitment, % Emax relative to wild-type [2] [% Emax] | % Emax of BRET, agonist-induced, relative to wild-type [1] [% Emax] | % Emax of BRET, unliganded, relative to the GLP-1R full response [3] [% Emax] | % Emax of BRET, agonist-induced, relative to the GLP-1R full response [4] [% Emax] |
| --- | --- | --- | --- | --- | --- |
| β-arrestin2-GFP2 (from UniProt P32121 1-409) (natural protein) | 451 | 300 | – | – | – |
| β-arrestin1-GFP2 (natural protein) MGDKGTRVFKKASPNGKLTVYLGKRDFVDHIDLVDPVDGVVLVDPEYLKERRVYVTLTCAFRYGREDLDVLGLTFRKDLFVANVQSFPPAPEDKKPLTRLQERLIKKLGEHAYPFTFEIPPNLPCSVTLQPGPEDTGKACGVDYEVKAFCAENLEEKIHKRNSVRLVIRKVQYAPERPGPQPTAETTRQFLMSDKPLHLEASLDKEIYYHGEPISVNVHVTNNTNKTVKKIKISVRQYADICLFNTAQYKCPVAMEEADDTVAPSSTFCKVYTLTPFLANNREKRGLALDGKLKHEDTNLASSTLLREGANREILGIIVSYKVKVKLVVSRGGLLGDLASSDVAVELPFTLMHPKPKEEPPHREVPENETPVDTNLIELDTNDDDIVFEDFARQRLKGMKDDKEEEEDGTGSPQLNNR | – | – | 470 | 5.1 | 19.5 |
